According to US8846394B2, “Treatment of neurological deficits in the striatum or substanta nigra pars compacta” (Ethicon, Inc., priority 2004, dated 2014):

What was measured:
[1] = tested on: adult rodent hippocampal neural progenitors; experiment: Immunocytochemical staining (TuJ1, TH, GFAP) of neural progenitors after 17-day culture with growth factors; type: cell-based, rat
Method: Adult rodent hippocampal neural progenitors were isolated from adult rat brain following previously published methods [Svendson et al., Nat Rev Genet., 5(2) 136-44 (2004)]. Isolated cells were seeded at 1,000 cells/cm^2 into laminin-coated 24 well tissue culture plates (Becton Dickson, Bedford, Mass.).
Seeded cells were initially grown in a supplemented neuralbasal medium (NBM). The NBM was Neurobasal-A media (Invitrogen, Carlsbad, Calif.) with B27 supplement (Invitrogen, Carlsbad, Calif.), and L-glutamine (4 milliMolar) (Sigma, St. Louis, Mo.). Supplemented NBM also contains epidermal growth factor (EGF) (Sigma, St. Louis, Mo.), at 20 nanograms/milliliter, and basic fibroblast growth factor, (bFGF) (Peprotech, Rocky Hill, N.J.), at 20 nanograms/milliliter).
Set one of cells was cultured in supplemented NBM for 17 days. Set two of cells was initially cultured in supplemented NBM for 4 days. The supplemented NBM then was removed from the culture plates and cells were cultured in NBM containing MP52 (Biopharm GmbH, Heidelberg, Germany) at 20 nanograms/milliliter for a period of 13 days. Set three of cells was initially cultured in supplemented NBM for 10 days. The supplemented NBM then was removed from the culture plate, and cells were cultured in NMB containing Sonic Hedgehog, (SHH) (Sigma, St. Louis, Mo.), at 200 nanograms/milliliter, and fibroblast growth factor 8 (FGF8) (Peprotech, Rocky Hill, N.J.), at 100 nanograms/milliliter. Set four of cells was initially cultured in supplemented NBM for 10 days. The supplemented NBM then was removed from the culture plates and cells were cultured in NBM containing MP52 at 20 nanograms/milliliter, SHH at 200 nanograms/milliliter, and FGF8 at 100 nanograms/milliliter).
At the end of the 17-day experimental period, all cultures were fixed with 4 percent paraformaldehyde (Sigma, St. Louis, Mo.) and immunocytochemical staining was performed to evaluate expression of Beta Tubulin III (TuJ1), glial fibrilary acidic protein (GFAP), and tyrosine hydroxylase (TH). […]
Following immunocytochemical staining, fluorescence was visualized using an Olympus inverted epifluorescent microscope and images were taken with a digital camera and ImagePro software (Media Cybernetics, Silver Spring, Md.). To further quantify the response, fields of cells were counted at a magnification power of 200× to examine the percentage of positive cells for each marker and compared to control samples grown in NBM alone. A minimum of 1,000 cells were counted per condition or, if less, the total number of cells observed in that condition.
The percentage of cells positive for a given marker was determined by dividing the number of positive cells for a particular marker by the total number of nucleated cells determined by DAPI staining.

[2] = tested on: human umbilical cord cells; experiment: Quantitative PCR of Nurr1 and TH mRNA in umbilical postpartum cells after dopaminergic differentiation; type: cell-based
Method: Postpartum cells were isolated from an umbilical cord and placental digestion as described in U.S. patent application Ser. Nos. 10/887,012 and 10/877,446. Briefly, human umbilical cord and placental cells were isolated from explants of postpartum tissue.
Isolated umbilical and placental cells were seeded at 1,000 cells/cm^2 into laminin coated 24 well tissue culture plates (Corning, N.Y.). Cells were initially seeded in maintenance media (control) as described in nonprov serial no. After 4 days in maintenance media, cells were split into four groups. The first set of cells was switched to NBM supplemented with EGF (20 nanograms/milliliter) and bFGF (20 nanograms/milliliter) and grown for 13 days. Sets two through four were switched to NBM supplemented with EGF (20 nanograms/milliliter) and bFGF (20 nanograms/milliliter) and grown for 6 days. The NBM supplemented with EGF and […] was then removed and cells were cultured in NBM containing; MP52 plus SHH plus FGF8 (set two); MP52 plus SHH plus FGF8 plus retinoic acid (RA) (set three); or MP52 plus RA (set four) for a further 7 days of culture.
At the end of the 17-day experimental period, RNA was isolated from the induced cell population using an Rneasy kit (RNeasy Mini kit, Qiagen, Valencia, Calif.). […]

[3] = tested on: embryonic rat dopaminergic neurons; settings: in vitro; cited from earlier work
[4] = tested on: adult rat nigrostriatal dopaminergic system; settings: intraparenchymal injection; cited from earlier work
[5] = immunostain, end of 17-day culture, positive cells / DAPI nucleated cells

B1: MP52: human recombinant GDF5 protein, 120 amino acid residues with alanine at the N-terminus, from Biopharm GmbH (protein, UniProt P43026 382-501, looked up)
Growth/differentiation factor …: APLATRQGKRPSKNLKARCSRKALHVNFKDMGWDDWIIAPLEYEAFHCEGLCEFPLRSHLEPTNHAVIQTLMNSMDPESTPPTCCVPTRLSPISILFIDSANNVVYKQYEDMVVESCGCR
- differentiation towards an astrocytic phenotype (GFAP expression), in words ([1]; immunocytochemistry): increased expression
- Nurr1 expression, in words ([2]; postpartum cell cultures (umbilicus and placenta), compared to control (NBM plus EGF plus FGF8)): induced
- Tyrosine hydroxylase (TH) expression, in words ([2]; umbilical cell cultures, compared to control): induced
- survival-promoting action on dopaminergic neurons against MPP+ [3]: survival-promoting actions

B2: NBM + MP52: neurobasal medium containing MP52 at 20 nanograms/milliliter (protein, UniProt P43026 382-501, looked up)
Growth/differentiation factor …: B1 Growth/differentiation factor …
modifications: in neurobasal medium, 20 ng/mL
notes: neurobasal medium containing MP52 at 20 nanograms/milliliter
- Percentage of cells staining positive for GFAP [1, 5]: ≧80%
- Percentage of cells staining positive for TH [1, 5]: 6.1%
- Percentage of cells staining positive for TuJ1 [1, 5]: 12.5%

B3: GDF5: growth and differentiation factor protein of the TGF-beta superfamily (literature studies) (protein, UniProt P43026 382-501, looked up)
Growth/differentiation factor …: B1 Growth/differentiation factor …
- protection of nigrostriatal dopaminergic system from death induced by 6OHDA lesion [4]: protects
